Data published in PMC5914118, “Exploiting the Concept of Multivalency with ^68Ga- and ^89Zr-Labelled Fusarinine C-Minigastrin Bioconjugates for Targeting CCK2R Expression” (Contrast Media & Molecular Imaging, 2018).
Where two headings read alike, the source gives them in different places. Marks after values point to notes of the source that are not given here.

How the values were obtained:
[1] = type: physicochemical
Method: Aliquots (50 μL) of ^68Ga- and ^89Zr-labelled mono-, di-, and trimer (10 μM) were diluted in 450 μL PBS. After adding 500 μL octanol the mixture was vortexed with 1400 rpm (MS 3 basic vortexer, IKA, Staufen, Germany) for 15 min at RT followed by centrifugation for 2 min at 4500 rpm. Subsequently, 100 μL aliquots of the organic and the aqueous layer were collected and logD values were calculated using Excel (n = 3, six replicates) after gamma counter measurement.

[2] = test system: A431-CCK2R/A431-mock tumour xenografted BALB/c nude mice; settings: mouse, in vivo
Method: All animal experiments were conducted in compliance with the Austrian and Dutch animal protection laws and with approval of the Austrian Ministry of Science (BMWF-66.011/000604-II/3b/2012 and BMWFW-66.011/0049-WF/II/3b/2014). In vivo stability studies were conducted in 5-week-old female BALB/c mice (in-house breed, ZVTA Innsbruck, Dr. Hermann Dietrich). The biodistribution studies were performed using female 8−10-week-old athymic BALB/c nude mice (Charles River Laboratories, Sulzfeld, Germany). Tumour xenografts were induced by subcutaneous injection of 2 × 10^6 A431-CCK2R cells (receptor positive) in the right and the same amount of A431-mock (receptor negative) in the left flank. Tumours were allowed to grow until they had reached a volume of 0.3–0.6 cm^3. To evaluate the biodistribution profile nude mice (n = 4) were intravenously injected with either 1-2 MBq ^68Ga- or 0.3 MBq ^89Zr-labelled mono-, di-, and trimer (0.1–0.2 nmol). The animals were sacrificed by cervical dislocation after 1 h as well as 2 h and 4 h in case of ^68Ga- and ^89Zr-labelled trimer, followed by the collection of organs and tissue. The collected samples were measured in the gamma counter and the results were calculated as percentage of injected dose per gram tissue (% ID/g).

SMILES: CSCC[C@H](NC(=O)[C@H](Cc1c[nH]c2ccccc12)NC(=O)CNC(=O)[C@H](Cc1ccc(O)cc1)NC(=O)[C@H](C)NC(=O)[C@@H](CCC(=O)O)NC(=O)CCSC1CC(=O)N(CCC(=O)NC2CCCN(O)C(=O)C=C(C)CCOC(=O)C(NC(=O)CCN3C(=O)CC(SCCC(=O)N[C@H](CCC(=O)O)C(=O)N[C@@H](C)C(=O)N[C@@H](Cc4ccc(O)cc4)C(=O)NCC(=O)N[C@@H](Cc4c[nH]c5ccccc45)C(=O)N[C@@H](CCSC)C(=O)N[C@@H](CC(=O)O)C(=O)N[C@@H](Cc4ccccc4)C(N)=O)C3=O)CCCN(O)C(=O)C=C(C)CCOC(=O)C(NC(C)=O)CCCN(O)C(=O)C=C(C)CCOC2=O)C1=O)C(=O)N[C@@H](CC(=O)O)C(=O)N[C@@H](Cc1ccccc1)C(N)=O (some centres unmarked) [^68Ga-labelled Dimer, metal not drawn]
- Distribution coefficient logD (pH 7.4) [1]: −2.38 ± 0.04
- Tumour-to-organ ratio (T/O): A431-mock [2]: 17.9 ± 6.1^c
- Tumour-to-organ ratio (T/O): Blood [2]: 16.0 ± 3.1^cd
- Tumour-to-organ ratio (T/O): Bone [2]: 11.6 ± 1.9^c
- Tumour-to-organ ratio (T/O): Heart [2]: 27.2 ± 4.8^cd
- Tumour-to-organ ratio (T/O): Intestine [2]: 19.9 ± 4.9^acd
- Tumour-to-organ ratio (T/O): Kidneys [2]: 0.30 ± 0.06^cd
- Tumour-to-organ ratio (T/O): Liver [2]: 11.1 ± 2.4^c
- Tumour-to-organ ratio (T/O): Lung [2]: 14.4 ± 2.3^cd
- Tumour-to-organ ratio (T/O): Muscle [2]: 31.4 ± 13.2^cd
- Tumour-to-organ ratio (T/O): Pancreas [2]: 17.9 ± 3.2^cd
- Tumour-to-organ ratio (T/O): Spleen [2]: 23.1 ± 4.2^cd
- Tumour-to-organ ratio (T/O): Stomach [2]: 4.0 ± 0.5^c
- Biodistribution: A431-CCK2R tumour (receptor positive) ([2]; 1 h): 8.36 ± 0.90^ac % ID/g
- Biodistribution: A431-mock tumour (receptor negative) ([2]; 1 h): 0.36 ± 0.22^cd % ID/g
- Biodistribution: Blood ([2]; 1 h): 0.53 ± 0.06^cd % ID/g
- Biodistribution: Bone ([2]; 1 h): 0.60 ± 0.21^cd % ID/g
- Biodistribution: Heart ([2]; 1 h): 0.31 ± 0.04^cd % ID/g
- Biodistribution: Intestine ([2]; 1 h): 0.44 ± 0.06^c % ID/g
- Biodistribution: Kidneys ([2]; 1 h): 28.9 ± 3.4^cd % ID/g
- Biodistribution: Liver ([2]; 1 h): 0.78 ± 0.09^c % ID/g
- Biodistribution: Lung ([2]; 1 h): 0.59 ± 0.08^cd % ID/g
- Biodistribution: Muscle ([2]; 1 h): 0.30 ± 0.08^cd % ID/g
- Biodistribution: Pancreas ([2]; 1 h): 0.48 ± 0.06^cd % ID/g
- Biodistribution: Spleen ([2]; 1 h): 0.37 ± 0.04^cd % ID/g
- Biodistribution: Stomach ([2]; 1 h): 2.13 ± 0.23^c % ID/g

SMILES: CSCC[C@H](NC(=O)[C@H](Cc1c[nH]c2ccccc12)NC(=O)CNC(=O)[C@H](Cc1ccc(O)cc1)NC(=O)[C@H](C)NC(=O)[C@@H](CCC(=O)O)NC(=O)CCSC1CC(=O)N(CCC(=O)NC2CCCN(O)C(=O)C=C(C)CCOC(=O)C(NC(C)=O)CCCN(O)C(=O)C=C(C)CCOC(=O)C(NC(C)=O)CCCN(O)C(=O)C=C(C)CCOC2=O)C1=O)C(=O)N[C@@H](CC(=O)O)C(=O)N[C@@H](Cc1ccccc1)C(N)=O (some centres unmarked) [^68Ga-labelled Monomer, metal not drawn]
- Distribution coefficient logD (pH 7.4) [1]: −2.99 ± 0.02
- Tumour-to-organ ratio (T/O): A431-mock [2]: 16.3 ± 3.3^bd
- Tumour-to-organ ratio (T/O): Blood [2]: 14.4 ± 3.6^b
- Tumour-to-organ ratio (T/O): Bone [2]: 17.1 ± 7.4^bd
- Tumour-to-organ ratio (T/O): Heart [2]: 29.5 ± 9.3^bd
- Tumour-to-organ ratio (T/O): Intestine [2]: 9.4 ± 3.7^b
- Tumour-to-organ ratio (T/O): Kidneys [2]: 0.86 ± 0.13^abd
- Tumour-to-organ ratio (T/O): Liver [2]: 21.1 ± 3.1^abd
- Tumour-to-organ ratio (T/O): Lung [2]: 11.7 ± 2.1^bd
- Tumour-to-organ ratio (T/O): Muscle [2]: 20.4 ± 1.8^b
- Tumour-to-organ ratio (T/O): Pancreas [2]: 16.7 ± 3.0^bd
- Tumour-to-organ ratio (T/O): Spleen [2]: 27.3 ± 6.3^b
- Tumour-to-organ ratio (T/O): Stomach [2]: 4.6 ± 1.1^b
- Biodistribution: A431-CCK2R tumour (receptor positive) ([2]; 1 h): 4.86 ± 1.00^d % ID/g
- Biodistribution: A431-mock tumour (receptor negative) ([2]; 1 h): 0.30 ± 0.04^b % ID/g
- Biodistribution: Blood ([2]; 1 h): 0.35 ± 0.06^ab % ID/g
- Biodistribution: Bone ([2]; 1 h): 0.31 ± 0.08^b % ID/g
- Biodistribution: Heart ([2]; 1 h): 0.17 ± 0.02^ab % ID/g
- Biodistribution: Intestine ([2]; 1 h): 0.58 ± 0.17^b % ID/g
- Biodistribution: Kidneys ([2]; 1 h): 5.57 ± 0.57^abd % ID/g
- Biodistribution: Liver ([2]; 1 h): 0.23 ± 0.02^ab % ID/g
- Biodistribution: Lung ([2]; 1 h): 0.42 ± 0.06^ab % ID/g
- Biodistribution: Muscle ([2]; 1 h): 0.20 ± 0.05^b % ID/g
- Biodistribution: Pancreas ([2]; 1 h): 0.29 ± 0.02^ab % ID/g
- Biodistribution: Spleen ([2]; 1 h): 0.18 ± 0.04^ab % ID/g
- Biodistribution: Stomach ([2]; 1 h): 1.07 ± 0.14^ab % ID/g

SMILES: CSCC[C@H](NC(=O)[C@H](Cc1c[nH]c2ccccc12)NC(=O)CNC(=O)[C@H](Cc1ccc(O)cc1)NC(=O)[C@H](C)NC(=O)[C@@H](CCC(=O)O)NC(=O)CCSC1CC(=O)N(CCC(=O)NC2CCCN(O)C(=O)C=C(C)CCOC(=O)C(NC(=O)CCN3C(=O)CC(SCCC(=O)N[C@H](CCC(=O)O)C(=O)N[C@@H](C)C(=O)N[C@@H](Cc4ccc(O)cc4)C(=O)NCC(=O)N[C@@H](Cc4c[nH]c5ccccc45)C(=O)N[C@@H](CCSC)C(=O)N[C@@H](CC(=O)O)C(=O)N[C@@H](Cc4ccccc4)C(N)=O)C3=O)CCCN(O)C(=O)C=C(C)CCOC(=O)C(NC(=O)CCN3C(=O)CC(SCCC(=O)N[C@H](CCC(=O)O)C(=O)N[C@@H](C)C(=O)N[C@@H](Cc4ccc(O)cc4)C(=O)NCC(=O)N[C@@H](Cc4c[nH]c5ccccc45)C(=O)N[C@@H](CCSC)C(=O)N[C@@H](CC(=O)O)C(=O)N[C@@H](Cc4ccccc4)C(N)=O)C3=O)CCCN(O)C(=O)C=C(C)CCOC2=O)C1=O)C(=O)N[C@@H](CC(=O)O)C(=O)N[C@@H](Cc1ccccc1)C(N)=O (some centres unmarked) [^68Ga-labelled Trimer, metal not drawn]
- Distribution coefficient logD (pH 7.4) [1]: −2.20 ± 0.07
- Biodistribution: A431-CCK2R tumour (receptor positive) ([2]; 1 h): 6.07 ± 1.56 % ID/g
- Biodistribution: A431-mock tumour (receptor negative) ([2]; 1 h): 2.17 ± 0.70^e % ID/g
- Biodistribution: Blood ([2]; 1 h): 3.70 ± 1.27 % ID/g
- Biodistribution: Bone ([2]; 1 h): 2.03 ± 0.88 % ID/g
- Biodistribution: Heart ([2]; 1 h): 1.60 ± 0.28^e % ID/g
- Biodistribution: Intestine ([2]; 1 h): 1.15 ± 0.28^e % ID/g
- Biodistribution: Kidneys ([2]; 1 h): 49.7 ± 10.1 % ID/g
- Biodistribution: Liver ([2]; 1 h): 3.71 ± 0.75 % ID/g
- Biodistribution: Lung ([2]; 1 h): 4.47 ± 1.50 % ID/g
- Biodistribution: Muscle ([2]; 1 h): 0.75 ± 0.15 % ID/g
- Biodistribution: Pancreas ([2]; 1 h): 1.37 ± 0.26^e % ID/g
- Biodistribution: Spleen ([2]; 1 h): 2.15 ± 0.32^e % ID/g
- Biodistribution: Stomach ([2]; 1 h): 3.17 ± 0.54 % ID/g
- Biodistribution: A431-CCK2R tumour (receptor positive) ([2]; 2 h): 8.73 ± 2.65^e % ID/g
- Biodistribution: A431-mock tumour (receptor negative) ([2]; 2 h): 3.18 ± 0.51 % ID/g
- Biodistribution: Blood ([2]; 2 h): 2.53 ± 0.67 % ID/g
- Biodistribution: Bone ([2]; 2 h): 2.52 ± 0.79 % ID/g
- Biodistribution: Heart ([2]; 2 h): 2.18 ± 0.31 % ID/g
- Biodistribution: Intestine ([2]; 2 h): 1.86 ± 0.33 % ID/g
- Biodistribution: Kidneys ([2]; 2 h): 59.6 ± 4.3^f % ID/g
- Biodistribution: Liver ([2]; 2 h): 4.09 ± 0.85 % ID/g
- Biodistribution: Lung ([2]; 2 h): 5.78 ± 0.92 % ID/g
- Biodistribution: Muscle ([2]; 2 h): 0.65 ± 0.14 % ID/g
- Biodistribution: Pancreas ([2]; 2 h): 1.80 ± 0.31 % ID/g
- Biodistribution: Spleen ([2]; 2 h): 2.89 ± 0.53 % ID/g
- Biodistribution: Stomach ([2]; 2 h): 3.86 ± 1.36^f % ID/g
- Biodistribution: A431-CCK2R tumour (receptor positive) ([2]; 4 h): 14.44 ± 3.40^f % ID/g
- Biodistribution: A431-mock tumour (receptor negative) ([2]; 4 h): 2.16 ± 0.54 % ID/g
- Biodistribution: Blood ([2]; 4 h): 1.76 ± 0.43 % ID/g
- Biodistribution: Bone ([2]; 4 h): 2.26 ± 0.41 % ID/g
- Biodistribution: Heart ([2]; 4 h): 1.51 ± 0.33^f % ID/g
- Biodistribution: Intestine ([2]; 4 h): 2.48 ± 0.59 % ID/g
- Biodistribution: Kidneys ([2]; 4 h): 172.1 ± 14.8 % ID/g
- Biodistribution: Liver ([2]; 4 h): 6.01 ± 2.54 % ID/g
- Biodistribution: Lung ([2]; 4 h): 3.75 ± 0.84^f % ID/g
- Biodistribution: Muscle ([2]; 4 h): 1.01 ± 0.37 % ID/g
- Biodistribution: Pancreas ([2]; 4 h): 3.10 ± 1.13 % ID/g
- Biodistribution: Spleen ([2]; 4 h): 2.77 ± 0.78 % ID/g
- Biodistribution: Stomach ([2]; 4 h): 13.6 ± 4.9 % ID/g
